The values below come from patent US20240101645A1 (HENRY M JACKSON FOUNDATION FOR THE ADVANCEMENT OF MILITARY …, published 2024).

The target in test [1] is T1, HCoV-NL63 spike antigens (bead panel) (HCoV-NL63, UniProt Q6Q1S2 19-1296).
T1 sequence: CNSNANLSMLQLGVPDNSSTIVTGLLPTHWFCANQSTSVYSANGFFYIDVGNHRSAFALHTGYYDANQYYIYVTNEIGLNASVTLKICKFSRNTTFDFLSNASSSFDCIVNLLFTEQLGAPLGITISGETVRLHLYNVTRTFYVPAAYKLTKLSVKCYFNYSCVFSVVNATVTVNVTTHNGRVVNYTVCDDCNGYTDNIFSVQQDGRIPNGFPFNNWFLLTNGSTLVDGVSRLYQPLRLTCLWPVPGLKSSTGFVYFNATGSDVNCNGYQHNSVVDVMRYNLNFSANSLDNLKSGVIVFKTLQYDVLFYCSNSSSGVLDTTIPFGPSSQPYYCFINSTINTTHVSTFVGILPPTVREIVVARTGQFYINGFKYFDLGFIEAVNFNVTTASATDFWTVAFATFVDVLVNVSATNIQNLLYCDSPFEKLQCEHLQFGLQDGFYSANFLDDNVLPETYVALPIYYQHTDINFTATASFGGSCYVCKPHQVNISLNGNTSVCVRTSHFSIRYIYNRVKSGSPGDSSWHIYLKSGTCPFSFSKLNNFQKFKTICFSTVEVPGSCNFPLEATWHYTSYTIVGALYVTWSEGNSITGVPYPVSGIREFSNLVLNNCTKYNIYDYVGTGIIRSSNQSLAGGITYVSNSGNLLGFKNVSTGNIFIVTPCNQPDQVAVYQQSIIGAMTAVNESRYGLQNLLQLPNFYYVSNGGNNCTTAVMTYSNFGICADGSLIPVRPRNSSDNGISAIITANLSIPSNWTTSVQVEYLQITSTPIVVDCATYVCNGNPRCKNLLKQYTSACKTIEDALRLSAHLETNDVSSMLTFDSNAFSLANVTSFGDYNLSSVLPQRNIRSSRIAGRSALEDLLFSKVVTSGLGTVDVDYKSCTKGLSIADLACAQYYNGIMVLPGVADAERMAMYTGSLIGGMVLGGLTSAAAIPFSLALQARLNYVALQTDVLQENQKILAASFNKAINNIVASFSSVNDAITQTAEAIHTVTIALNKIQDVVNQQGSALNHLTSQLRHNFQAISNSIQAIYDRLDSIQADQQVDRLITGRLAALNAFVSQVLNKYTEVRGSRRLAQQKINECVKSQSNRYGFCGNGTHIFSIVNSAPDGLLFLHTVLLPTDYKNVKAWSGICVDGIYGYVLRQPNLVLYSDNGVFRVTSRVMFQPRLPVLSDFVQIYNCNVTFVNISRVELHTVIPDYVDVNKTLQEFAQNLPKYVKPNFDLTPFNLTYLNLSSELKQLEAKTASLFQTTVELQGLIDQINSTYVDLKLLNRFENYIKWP
In words: multiplex bead assay.

The target in test [2] is T2, HCoV-229E spike antigens (bead panel) (HCoV-229E, UniProt P15423 16-1115).
T2 sequence: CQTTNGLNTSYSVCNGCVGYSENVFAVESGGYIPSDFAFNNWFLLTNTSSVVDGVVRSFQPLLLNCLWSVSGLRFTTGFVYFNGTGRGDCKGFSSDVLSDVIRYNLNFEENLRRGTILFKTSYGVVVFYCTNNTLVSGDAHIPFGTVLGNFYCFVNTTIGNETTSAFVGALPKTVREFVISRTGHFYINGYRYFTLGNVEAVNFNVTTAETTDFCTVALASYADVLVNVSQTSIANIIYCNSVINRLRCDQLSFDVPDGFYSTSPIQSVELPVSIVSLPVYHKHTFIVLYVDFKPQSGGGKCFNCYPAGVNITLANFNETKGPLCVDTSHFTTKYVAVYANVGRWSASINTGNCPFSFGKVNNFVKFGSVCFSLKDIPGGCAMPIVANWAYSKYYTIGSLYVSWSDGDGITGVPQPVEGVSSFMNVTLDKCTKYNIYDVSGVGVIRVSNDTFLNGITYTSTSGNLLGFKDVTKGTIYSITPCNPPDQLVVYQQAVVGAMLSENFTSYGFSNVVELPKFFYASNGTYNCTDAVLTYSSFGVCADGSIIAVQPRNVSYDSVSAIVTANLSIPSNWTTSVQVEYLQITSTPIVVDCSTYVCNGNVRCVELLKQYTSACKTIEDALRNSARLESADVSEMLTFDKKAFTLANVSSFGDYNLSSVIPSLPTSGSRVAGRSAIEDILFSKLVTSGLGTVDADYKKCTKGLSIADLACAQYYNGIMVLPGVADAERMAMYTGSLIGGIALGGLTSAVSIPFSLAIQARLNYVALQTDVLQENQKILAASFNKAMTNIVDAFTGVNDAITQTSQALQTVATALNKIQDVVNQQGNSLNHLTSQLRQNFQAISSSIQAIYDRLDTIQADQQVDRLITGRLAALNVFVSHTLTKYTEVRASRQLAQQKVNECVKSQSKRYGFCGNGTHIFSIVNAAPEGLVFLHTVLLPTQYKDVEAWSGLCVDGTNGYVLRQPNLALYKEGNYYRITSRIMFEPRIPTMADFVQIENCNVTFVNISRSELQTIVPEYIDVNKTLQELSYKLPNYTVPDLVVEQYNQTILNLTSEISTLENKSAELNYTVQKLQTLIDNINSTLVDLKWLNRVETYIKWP
As to the kind of experiment: multiplex bead assay.

B1: COV_2039 (antibody, V domains shown)
VH: QVQLVQSGAEVKKPGASVKVSCKVSGYMLIELSMHWVRQAPGKGLEWMGGFDPEDAETIYAQEFQGRVTMTEDTSTDTAYMELSSLRSEDTAVYYCTTGPAVTNRPADYWGPGTLVTVSS
VL: QSVLTQPPSVSGAPGQRVTISCTGSSSNIGASYDVHWYQQLPGTAPKLLIYANSNRPSGVPDRFSGSKSGTSASLAITGLQAEDEADYYCQSYDSSLSYSVVFGGGTKLTVL
notes: human IgG1
Take B1: the binding result in test [1] and in test [2] was “no binding” throughout.

B2: COV_2172 (SEQ ID NO:872/877) (antibody, V domains shown)
VH: EVQLVESGGGVVQPGRSLRLSCAPSGFTFSTYAMHWVRQAPGKGLEWVAVISYDGSIKYYADSVKGRFTISRDNTMNTVFLQMNSLRAEDTAVYFCAKGGERWELFTSFDYWGQGTQVTVSS
VL: QSALTQPRSVSGSPGQSVTISCTGTSSDVGGYNYVSWYQQHPGKAPKLMIYDVSKRPSGVPDRFSGSKSGNTASLTISGLQAEDEADYYCCSYAGSYTFVFGGGTKLTVLG
For B2, the binding result in test [1] and in test [2] was “no binding” each time.

B3: COV_2037 (antibody, V domains shown)
VH: QVQLVQSGAEVKKPGASVKVSCKVSGYTLTELSMHWVRQAPGKGLEWMGGFDPEDAETIYAQKFQGRVTMTEDTSTDTAYMELSSLRSEDTAVYYCATAGAITGTPTNYSYYYGMDFWGQGTTVTVSS
VL: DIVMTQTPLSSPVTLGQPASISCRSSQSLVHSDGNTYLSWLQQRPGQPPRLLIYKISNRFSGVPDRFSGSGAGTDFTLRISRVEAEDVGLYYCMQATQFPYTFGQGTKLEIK
notes: human IgG1
In the case of B3, the binding result in test [1] and in test [2] was “no binding” throughout.

B4: COV_2143 (antibody, V domains shown)
VH: EVQLVESGGGVVQPGRSLRLSCAASGFTFNSFAMLWVRQAPGKGLEWVALFSYDGSNKYYADSVKGRFTISRDNSKNTLYLQMNNLRAVDTAVYYCARASPYDINGYYLHRIAFDIWGQGTMVTVSS
VL: QSVLMQPPSVSGAPGQRVTISCTGSSSNIGAGYDVHWYQQLPGTAPKLLMYGNSNRPSGVPDRFSGSKSGTSASLAITGLQAEDEADYYCQSYDSGLSGWVFGGGTKLTVLG
notes: human IgG1
Turning to B4, the binding result in test [1] and in test [2] was “no binding” throughout.

B5: COV_3077 (antibody, V domains shown)
VH: QVQLQESGPGLVKPSETLSLTCAVSGYSISSGYYWGWIRQPPGKGLEWIGSIYHSGSTYYNPSLKSRVTISVDTSKNQFSLKLSSVTAADTAVYYCARALYDAFDIWGQGTMVTVSS
VL: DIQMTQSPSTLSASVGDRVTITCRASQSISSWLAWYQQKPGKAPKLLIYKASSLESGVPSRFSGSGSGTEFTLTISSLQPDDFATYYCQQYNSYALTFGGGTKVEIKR
notes: human IgG1
In the case of B5, the binding result in test [1] and in test [2] was “no binding” throughout.

B6: COV_2093 (antibody, V domains shown)
VH: EVQLVESGGGLVQPGGSLRLSCAASGFMFNRFWMSWVRQAPGKGLEWVTNIKQDGSEKNYVDSVKGRFTISRDNAKNSLYLQMNSLRAEDTAVYYCARDGLYYDFRSPSPFYGMDVWGQGTTVTVSS
VL: DIQMTQSPSSLSASVGDRVTITCRASQSISSYLNWYQHKSGKAPKLLIYAASRLQSGVPSRFSGSGSGTDFTLTIVSLQPEDLATYYCQQSYSTPRTFGGGTKVEIKR
notes: human IgG1
Take B6: the binding result in test [1] and in test [2] was “no binding” each time.

B7: COV_2028 (antibody, V domains shown)
VH: QVQLQESGPGLVKPSGTLSLTCVVSGGSISSSNWWSWVRQPPGKGLEWIGEIYHSGSTNYNPSLKSRVTISVDKSKNQFSLRLTSVTAADTAVYYCARGWNYDYWGQGTLVTVSS
VL: QSALTQPASVSGSPGQSITIACTGTSSDVGSYNLVSWYQQHPGKAPKLMIYEVSKRPSGLSNRFSGSKSGNTASLTISGLQAEDEADYYCYSYAGSSTWVFGGGTKLTVL
notes: human IgG1
As for B7, the binding result in test [1] and in test [2] was “no binding” throughout.

B8: COV_2035 (antibody, V domains shown)
VH: QVQLVQSGAEVKKPGASVKVSCKVSGYTLPELSIHWVRQAPGKGLEWLGGFDPEDGKIIYAQKFQGRVTMTEDTSTDTAYMELSSLRSEDTAVYYCATSPAVVERGWFDPWGQGTLVTVSS
VL: QSALTQPPSASGSPGQSVTISCTGTSSDVGGYNYVSWYQQHPGKAPKLMIYEVSKRPSGVPDRFSGSKSGNMASLTVSGLQAEDEANYYCSSYAGSKRVFGGGTKLTVL
notes: human IgG1
For the molecule B8, the binding result in test [1] and in test [2] was “no binding” throughout.

B9: COV_2174 (antibody, V domains shown)
VH: EVQLAESGGGLVKPGGSLRLSCAASGFTFSDYYMSWIRQAPGKGLEWVSYISSSGSTIYYADSVKGRFTISRDNAKNSLYLQMNSLRAEDTAVYYCARDWSVVVVPAAPAVDVWGQGTTVTVSS
VL: DIQMTQSPSSLSASVGDRVTITCRASQGISNYLAWFQQKPGKAPKSLIYAASSLQSGVPSKFSGSGSGTDFTLTISSLQPEDFATYYCQQYNSYPLTFGGGTKVEIKR
notes: human IgG1
On to B9, for which the binding result in test [1] and in test [2] was “no binding” each time.

B10: COV_2027 (antibody, V domains shown)
VH: EVQLVESGGGLIQPGGSLRLSCAASGFSVSTNYMSWVRQAPGKGLEWVSIIYSGGGTYYADSVKGRFTISRDTSENTLYLQMNSLRAEDTAVYYCASFLVGATGQPWYWGQGTLVTVSS
VL: not shown
notes: human IgG1
Regarding B10, the binding result in test [1] and in test [2] was “no binding” each time.

B11: COV_2014 (antibody, V domains shown)
VH: QVQLVQSGAEVKKPGASVKVSCKVSGYTLTELSMHWVRQAPGKGLEWMGGFDPEDGETIYAQKFQGRVTMTEDTSTDTAYMELSSLRSEDTAVYYCATGKINYYDSSGYYGTFDYWGQGTLVTVSS
VL: AIQLTQSPSSLSASVGDRVTITCRASQGISSYLAWYQQKPGKAPKLLIYAASTLQSGVPSRFSGSGSGTDFTLTISSLQPEDFATYYCQQLNSYHLTFGQGTRLEIK
notes: human IgG1
As for B11, the binding result in test [1] and in test [2] was “no binding” each time.

B12: COV_2054 (antibody, V domains shown)
VH: EVQLVESGGGVLQPGRSLRLSCAASGFTFNNYALHWVRQAPGKGLEWVAVISYDGSSKYYADSVRGRLTISRDNSRNTLYLQMNSLRPEDTAIYYCARDGDGLWLGESFYFDDWGQGTLVTVSS
VL: DIQMTQSPSTLSASVGDRVIITCRASQSISSWLAWYQQKPGKAPKLLIYEASTLQSGVPSRFSGSGSGTEFTLTISSLQPDDSATYYCQQYNSYPVHFSQGTKLEIK
notes: human IgG1
Regarding B12, the binding result in test [1] and in test [2] was “no binding” each time.

B13: COV_2025 (antibody, V domains shown)
VH: QVHLVQSGAEVKKPGASVKVSCKVSGYTLVELSVHWVRQAPAKGLEWIGGFDPEDGETIYAQKFQGRVTMTEDTSTDTAYMELTNLRSEDTAVYYCVTSQPFVSPNWFDPWGQGTLVTVSS
VL: QSALTQPASVSGSPGQSITISCTGTSRDVGAYNYVSWYQQHPGKAPKLMIYEVTTRPSGVSNRFSGSKSGNTASLTISGLQAEDEADYYCSSYTGSRTLVFGTGTKVTVL
notes: human IgG1
For the molecule B13, the binding result in test [1] and in test [2] was “no binding” each time.
